T1: Human DLL3 (R&D Systems) (human, UniProt Q9NYJ7 27-492, limits assumed)
T1 sequence (looked up): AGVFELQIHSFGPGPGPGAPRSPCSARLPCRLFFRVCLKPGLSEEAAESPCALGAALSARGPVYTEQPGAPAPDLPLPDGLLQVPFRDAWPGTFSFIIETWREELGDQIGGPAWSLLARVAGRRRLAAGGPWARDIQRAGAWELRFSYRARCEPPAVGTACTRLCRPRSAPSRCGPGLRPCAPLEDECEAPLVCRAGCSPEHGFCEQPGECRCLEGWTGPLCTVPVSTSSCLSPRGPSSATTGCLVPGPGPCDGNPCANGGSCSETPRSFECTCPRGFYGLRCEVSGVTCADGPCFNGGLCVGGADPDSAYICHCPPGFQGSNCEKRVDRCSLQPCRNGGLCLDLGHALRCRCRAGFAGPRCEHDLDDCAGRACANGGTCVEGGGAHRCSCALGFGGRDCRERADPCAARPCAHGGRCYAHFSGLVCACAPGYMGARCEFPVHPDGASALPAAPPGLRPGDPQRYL

T2: DLL3 on SHP77 cells (UniProt Q9NYJ7 27-618, limits assumed)
T2 construct: whole, on cells; also called delta-like ligand 3
T2 sequence (looked up): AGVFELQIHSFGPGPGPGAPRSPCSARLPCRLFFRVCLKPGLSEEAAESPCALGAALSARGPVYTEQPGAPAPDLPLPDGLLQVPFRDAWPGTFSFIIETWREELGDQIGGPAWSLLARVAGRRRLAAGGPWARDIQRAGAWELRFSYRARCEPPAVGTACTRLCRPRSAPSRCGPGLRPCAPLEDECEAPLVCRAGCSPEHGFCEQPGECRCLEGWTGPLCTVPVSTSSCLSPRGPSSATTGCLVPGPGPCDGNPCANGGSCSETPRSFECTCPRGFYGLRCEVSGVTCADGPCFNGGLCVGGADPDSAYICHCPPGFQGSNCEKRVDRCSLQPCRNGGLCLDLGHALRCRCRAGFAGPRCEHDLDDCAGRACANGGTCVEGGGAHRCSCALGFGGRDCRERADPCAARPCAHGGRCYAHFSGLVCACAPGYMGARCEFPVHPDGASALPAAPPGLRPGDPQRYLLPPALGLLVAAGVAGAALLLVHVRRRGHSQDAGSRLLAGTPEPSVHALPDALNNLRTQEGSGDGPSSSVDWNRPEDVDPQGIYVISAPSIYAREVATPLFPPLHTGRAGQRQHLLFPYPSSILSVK


How the values were obtained:
[1] = target: T1, Human DLL3 (R&D Systems); assay: bridging ELISA: human DLL3 coated at 1 ug/ml, HEK293T supernatant, detection by human IgG Fc conjugated CD3e + anti-human-HRP (signal needs binding to both DLL3 and CD3e); untransfected 0.010
Method: (§1) The expressed DLL3×CD3 bispecific T-cell engagers also were evaluated for binding to DLL3 and to CD3 with an ELISA. This ELISA was developed to detect correctly folded DLL3×CD3 bispecific T-cell engager binding to DLL3 and CD3 in the same assay. Human DLL3 (R&D Systems) was coated overnight at 4° C. on a high protein-binding 96-well plate, at a concentration of 1 ug/ml. The wells then were washed three times with PBS 0.05% Tween-20, and the wells were blocked with ELISA blocking buffer for 1 hour at room temperature. The wells then were washed three times with PBS 0.05% Tween-20. HEK293T cell culture supernatants, containing the DLL3×CD3 bispecific T-cell engagers, were added to the wells and incubated for 2 hours at room temperature. The wells were washed three times with PBS 0.05% Tween-20, and human IgG Fc conjugated CD3e was added to the wells (Acro Biosystems), and incubated for one hour at room temperature. The wells again were washed three times with PBS 0.05% Tween-20, and horseradish peroxidase (HRP)-conjugated anti-human antibody was added for a 1 hour incubation. The wells were then washed three times with PBS 0.05% Tween-20, and detection reagent (3,3′,5,5′-tetramethylbenzidine (TMB), Thermo Fisher Scientific) was added to the wells. The enzymatic reaction was stopped with sulfuric acid (BioLegend), and the optical densities were read at 450 nm.

[2] = target: T1, Human DLL3 (R&D Systems); assay: bridging ELISA (human DLL3 coated, CD3e-Fc detection) with engagers purified on ANTI-FLAG M2 Affinity Gel
Method: as §1
The table below provides the results of this ELISA, shown as the absorbance at 450 nm. All of the SC16.56 DLL3LH×CD3HL, SC16.34 DLL3HL×CD3HL, and SC16.34 DLL3LH×CD3HL BiTE antibodies were detected, showing that these BiTEs antibodies are fully functional. […] In a separate experiment, the bispecific T-cell engagers were purified using ANTI-FLAG M2 Affinity Gel (Sigma) and run on this ELISA. SC16.34 DLL3LH×CD3HL was the only purified BiTE to show ELISA signal above background.

[3] = target: T2, DLL3 on SHP77 cells; assay: flow cytometry on SHP77 cells, concentrated HEK supernatant, Protein L biotin + Streptavidin APC; percent APC positive cells
Method: (§2) 500,000 SHP77 cells were seeded in wells of a V-bottom 96-well plate. The cells were washed once with PBS+2% FBS by centrifugation at 1300 RPM for 3 minutes. The cells were resuspended in 50 uL PBS+2% FBS containing concentrated HEK supernatant corresponding to either untransfected cells or cells transfected with a BiTE. After 30 minutes, the cells were washed twice with PBS+2% FBS by centrifugation at 1300 RPM for 3 minutes. The cells were then resuspended in 50 uL PBS+2% FBS containing either anti-Flag biotin (Sigma) at 1:100 dilution or Protein L biotin (Genscript) at 1:200 dilution, and incubated on ice for 30 minutes. The cells were washed twice with PBS+2% FBS by centrifugation at 1300 RPM for 3 minutes. Subsequently, the cells were stained with Streptavidin APC (Biolegend) at 1:200 dilution and incubated on ice for 30 minutes in the dark.
(§3) The cells were washed twice with PBS+2% FBS by centrifugation at 1300 RPM for 3 minutes and resuspended in DAPI diluted 1:6000 in PBS+2% FBS. Flow cytometry data were acquired using the ACEA NovoCyte® flow cytometer (ACEA Biosciences, Inc.), and analyzed using the FlowJo™ software (Tree Star, Inc.).

[4] = target: T2, DLL3 on SHP77 cells; assay: flow cytometry on SHP77 cells, concentrated HEK supernatant, anti-Flag biotin + Streptavidin APC; percent APC positive cells
Method: as §2, §3

Binder | Absorbance at 450 nm [1] | binding result [2] | % Binding to SHP77 Detected by Protein L [3] [%] | % Binding to SHP77 Detected by anti-Flag [4] [%]
SC16.15 DLL3HL×CD3HL (bispecific antibody, the leader is left out here; Tested as HEK293T supernatant; also called SC16.15 DLL3HLxCD3HL BiTE) QVQLQQSGAELAKPGASVKMSCKASGYTFTRYWIHWIKQRPGQGLEWIGYINPTTVYTEFNQNFKDKATLTADKSSTTASMQLSSLTSEDSAVYYCARGGSNFFDYWGQGTTLTVSSGGGGSGGGGSGGGGSDIQMTQSPASLAASVGETVAITCRASENIYYNLAWYQQKQGKSPQLLIYTANSLEDGVPSRFSGSGSGTQYSLKINSMQPEDSATYFCKQAYDVPPTFGGGTKLEIKGGGGSEVQLVESGGGLVQPGKSLKLSCEASGFTFSGYGMHWVRQAPGRGLESVAYITSSSINIKYADAVKGRFTVSRDNAKNLLFLQMNILKSEDTAMYYCARFDWDKNYWGQGTMVTVSSGGGGSGGGGSGGGGSDIQMTQSPSSLPASLGDRVTINCQASQDISNYLNWYQQKPGKAPKLLIYYTNKLADGVPSRFSGSGSGRDSSFTISSLESEDIGSYYCQQYYNYPWTFGPGTKLEIKDYKDDDDK | 0.002 absorbance (450 nm) | no binding |  | 
SC16.34 DLL3HL×CD3HL (bispecific antibody, the leader is left out here; Tested as HEK293T supernatant; also called SC16.34 DLL3HLxCD3HL BiTE) QIQLVQSGPELKRPGETVKISCKASGYTFTNYGMNWVKQAPGKGLKWMGWINTYTGDPTYADDFKGRFAFSLETSASTAYLQINNLKNEDTATYFCARIGGNSPSDYWGQGTSLTVSSGGGGSGGGGSGGGGSSIVMTQTPKFLLVSAGDRVTITCKASQSVSNDVAWYQQKPGQSPKLLIYYASNRYSGVPDRFTGSGYGTDFTFTISTVQAEDLAVYFCQQDYSSPWTFGGGTKLEIKGGGGSEVQLVESGGGLVQPGKSLKLSCEASGFTFSGYGMHWVRQAPGRGLESVAYITSSSINIKYADAVKGRFTVSRDNAKNLLFLQMNILKSEDTAMYYCARFDWDKNYWGQGTMVTVSSGGGGSGGGGSGGGGSDIQMTQSPSSLPASLGDRVTINCQASQDISNYLNWYQQKPGKAPKLLIYYTNKLADGVPSRFSGSGSGRDSSFTISSLESEDIGSYYCQQYYNYPWTFGPGTKLEIKDYKDDDDK | 0.253 absorbance (450 nm) |  | 36.6 | 19.6
SC16.15 DLL3LH×CD3HL (bispecific antibody, the leader is left out here; Tested as HEK293T supernatant; also called SC16.15 DLL3LHxCD3HL BiTE) DIQMTQSPASLAASVGETVAITCRASENIYYNLAWYQQKQGKSPQLLIYTANSLEDGVPSRFSGSGSGTQYSLKINSMQPEDSATYFCKQAYDVPPTFGGGTKLEIKGGGGSGGGGSGGGGSQVQLQQSGAELAKPGASVKMSCKASGYTFTRYWIHWIKQRPGQGLEWIGYINPTTVYTEFNQNFKDKATLTADKSSTTASMQLSSLTSEDSAVYYCARGGSNFFDYWGQGTTLTVSSGGGGSEVQLVESGGGLVQPGKSLKLSCEASGFTFSGYGMHWVRQAPGRGLESVAYITSSSINIKYADAVKGRFTVSRDNAKNLLFLQMNILKSEDTAMYYCARFDWDKNYWGQGTMVTVSSGGGGSGGGGSGGGGSDIQMTQSPSSLPASLGDRVTINCQASQDISNYLNWYQQKPGKAPKLLIYYTNKLADGVPSRFSGSGSGRDSSFTISSLESEDIGSYYCQQYYNYPWTFGPGTKLEIKDYKDDDDK | 0.001 absorbance (450 nm) | no binding |  | 

More lines, now with the values ahead:

Absorbance at 450 nm [1] | binding result [2] | % Binding to SHP77 Detected by Protein L [3] [%] | % Binding to SHP77 Detected by anti-Flag [4] [%] | Binder
1.46 absorbance (450 nm) |  | 36.4 | 20.1 | SC16.34 DLL3LH×CD3HL (bispecific antibody, the leader is left out here; also called SC16.34 DLL3LHxCD3HL BiTE) SIVMTQTPKFLLVSAGDRVTITCKASQSVSNDVAWYQQKPGQSPKLLIYYASNRYSGVPDRFTGSGYGTDFTFTISTVQAEDLAVYFCQQDYSSPWTFGGGTKLEIKGGGGSGGGGSGGGGSQIQLVQSGPELKRPGETVKISCKASGYTFTNYGMNWVKQAPGKGLKWMGWINTYTGDPTYADDFKGRFAFSLETSASTAYLQINNLKNEDTATYFCARIGGNSPSDYWGQGTSLTVSSGGGGSEVQLVESGGGLVQPGKSLKLSCEASGFTFSGYGMHWVRQAPGRGLESVAYITSSSINIKYADAVKGRFTVSRDNAKNLLFLQMNILKSEDTAMYYCARFDWDKNYWGQGTMVTVSSGGGGSGGGGSGGGGSDIQMTQSPSSLPASLGDRVTINCQASQDISNYLNWYQQKPGKAPKLLIYYTNKLADGVPSRFSGSGSGRDSSFTISSLESEDIGSYYCQQYYNYPWTFGPGTKLEIKDYKDDDDK
0.007 absorbance (450 nm) | no binding |  |  | SC16.56 DLL3HL×CD3HL (bispecific antibody, the leader is left out here; Tested as HEK293T supernatant; also called SC16.56 DLL3HLxCD3HL BiTE) QIQLVQSGPELKKPGETVKISCKASGYTFTNYGMNWVKQAPGKGLKWMAWINTYTGEPTYADDFKGRFAFSLETSASTASLQIINLKNEDTATYFCARIGDSSPSDYWGQGTTLTVSSGGGGSGGGGSGGGGSSIVMTQTPKFLLVSAGDRVTITCKASQSVSNDVVWYQQKPGQSPKLLIYYASNRYTGVPDRFAGSGYGTDFSFTISTVQAEDLAVYFCQQDYTSPWTFGGGTKLEIRGGGGSEVQLVESGGGLVQPGKSLKLSCEASGFTFSGYGMHWVRQAPGRGLESVAYITSSSINIKYADAVKGRFTVSRDNAKNLLFLQMNILKSEDTAMYYCARFDWDKNYWGQGTMVTVSSGGGGSGGGGSGGGGSDIQMTQSPSSLPASLGDRVTINCQASQDISNYLNWYQQKPGKAPKLLIYYTNKLADGVPSRFSGSGSGRDSSFTISSLESEDIGSYYCQQYYNYPWTFGPGTKLEIKDYKDDDDK
0.175 absorbance (450 nm) |  | 36.4 | 20.9 | SC16.56 DLL3LH×CD3HL (bispecific antibody, the leader is left out here; Tested as HEK293T supernatant; also called SC16.56 DLL3LHxCD3HL BiTE) SIVMTQTPKFLLVSAGDRVTITCKASQSVSNDVVWYQQKPGQSPKLLIYYASNRYTGVPDRFAGSGYGTDFSFTISTVQAEDLAVYFCQQDYTSPWTFGGGTKLEIRGGGGSGGGGSGGGGSQIQLVQSGPELKKPGETVKISCKASGYTFTNYGMNWVKQAPGKGLKWMAWINTYTGEPTYADDFKGRFAFSLETSASTASLQIINLKNEDTATYFCARIGDSSPSDYWGQGTTLTVSSGGGGSEVQLVESGGGLVQPGKSLKLSCEASGFTFSGYGMHWVRQAPGRGLESVAYITSSSINIKYADAVKGRFTVSRDNAKNLLFLQMNILKSEDTAMYYCARFDWDKNYWGQGTMVTVSSGGGGSGGGGSGGGGSDIQMTQSPSSLPASLGDRVTINCQASQDISNYLNWYQQKPGKAPKLLIYYTNKLADGVPSRFSGSGSGRDSSFTISSLESEDIGSYYCQQYYNYPWTFGPGTKLEIKDYKDDDDK

Source: patent US20240293478A1 (ACTYM THERAPEUTICS, published 2024)
